T1: Leucine-Rich Repeat and Ig Domain Protein 1 (LINGO1) (UniProt Q96FE5 42-620, limits assumed)
T1 construct: whole, on cells; It is endogenous on Ewing sarcoma cell lines and transduced in K562 cells
T1 sequence (looked up): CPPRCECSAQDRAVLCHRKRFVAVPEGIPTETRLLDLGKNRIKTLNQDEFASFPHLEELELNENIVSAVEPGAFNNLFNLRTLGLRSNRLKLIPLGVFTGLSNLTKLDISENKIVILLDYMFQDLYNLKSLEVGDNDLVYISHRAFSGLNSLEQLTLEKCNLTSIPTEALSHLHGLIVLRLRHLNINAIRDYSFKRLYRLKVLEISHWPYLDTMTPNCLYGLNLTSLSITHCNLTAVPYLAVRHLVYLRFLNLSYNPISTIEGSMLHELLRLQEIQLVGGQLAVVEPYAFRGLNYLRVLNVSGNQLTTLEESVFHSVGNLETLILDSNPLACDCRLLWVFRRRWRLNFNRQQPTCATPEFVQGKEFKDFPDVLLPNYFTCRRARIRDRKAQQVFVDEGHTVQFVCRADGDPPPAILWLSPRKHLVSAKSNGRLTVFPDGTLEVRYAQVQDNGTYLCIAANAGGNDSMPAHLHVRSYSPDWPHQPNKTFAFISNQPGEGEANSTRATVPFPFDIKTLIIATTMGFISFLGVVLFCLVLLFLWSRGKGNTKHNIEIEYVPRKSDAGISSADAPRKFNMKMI

B1: Li62 scFv, VHVL orientation (scFv)
scFv: EVQLLESGGGLVQPGGSLRLSCAASGFTFSIYPMFWVRQAPGKGLEWVSWIGPSGGITKYADSVKGRFTISRDNSKNTLYLQMNSLRAEDTATYYCAREGHNDWYFDLWGRGTLVTVSSGGGGSGGGGSGGGGSDIQMTQSPSFLSASVGDSVAITCRASQDISRYLAWYQQRPGKAPKLLIYDASNLQTGVPSRFSGSGSGTDFTFTITSLQPEDFGTYYCQQYDTLHPSFGPGTTVDIK
notes: It was detected with an anti-FLAG/APC antibody, so it carried a FLAG tag; also called Li62 VHVL; LINGO1-specific scFv
B2: Li81 scFv, VHVL orientation (scFv)
scFv: EVQLLESGGGLVQPGGSLRLSCAASGFTFSAYEMKWVRQAPGKGLEWVSVIGPSGGFTFYADSVKGRFTISRDNSKNTLYLQMNSLRAEDTAVYYCATEGDNDAFDIWGQGTTVTVSSGGGGSGGGGSGGGGSDIQMTQSPATLSLSPGERATLSCRASQSVSSYLAWYQQKPGQAPRLLIYDASNRATGIPARFSGSGSGTDFTLTISSLEPEDFAVYYCQQRSNWPMYTFGQGTKLEIK
notes: It was detected with an anti-FLAG/APC antibody, so it carried a FLAG tag; also called Li81 VHVL; LINGO1-specific scFv
B3: Li62 scFv, VLVH orientation (scFv)
scFv: DIQMTQSPSFLSASVGDSVAITCRASQDISRYLAWYQQRPGKAPKLLIYDASNLQTGVPSRFSGSGSGTDFTFTITSLQPEDFGTYYCQQYDTLHPSFGPGTTVDIKGGGGSGGGGSGGGGSEVQLLESGGGLVQPGGSLRLSCAASGFTFSIYPMFWVRQAPGKGLEWVSWIGPSGGITKYADSVKGRFTISRDNSKNTLYLQMNSLRAEDTATYYCAREGHNDWYFDLWGRGTLVTVSS
notes: It was detected with an anti-FLAG/APC antibody, so it carried a FLAG tag; also called Li62 VLVH; LINGO1-specific scFv
B4: Li81 scFv, VLVH orientation (scFv)
scFv: DIQMTQSPATLSLSPGERATLSCRASQSVSSYLAWYQQKPGQAPRLLIYDASNRATGIPARFSGSGSGTDFTLTISSLEPEDFAVYYCQQRSNWPMYTFGQGTKLEIKGGGGSGGGGSGGGGSEVQLLESGGGLVQPGGSLRLSCAASGFTFSAYEMKWVRQAPGKGLEWVSVIGPSGGFTFYADSVKGRFTISRDNSKNTLYLQMNSLRAEDTAVYYCATEGDNDAFDIWGQGTTVTVSS
notes: It was detected with an anti-FLAG/APC antibody, so it carried a FLAG tag; also called Li81 VLVH; LINGO1-specific scFv

Target: T1, Leucine-Rich Repeat and Ig Domain …
Experiment: flow cytometry on Ewing sarcoma cell lines; scFv detected with anti-FLAG/APC secondary antibody
Method: FIGS. 4A-4I show LINGO1-specific CAR T cells show cytotoxic activity against Ewing sarcoma. (FIG. 4A) mRNA expression of LINGO1 and GAPDH housekeeping gene in Ewing sarcoma cell lines and healthy brain tissue as determined by RT-PCR. (FIG. 4B) Schema of CAR construct and four LINGO1-specific scFv domains (FIG. 4C) Binding of LINGO1-specific scFvs at 5 µg/ml and secondary staining with an anti-FLAG/APC antibody (clone: L5). against Ewing sarcoma cell lines as determined by flow cytometry. Secondary antibody alone is shown in grey. (FIG. 4D) LINGO1 CAR surface expression on primary T cells after staining with an anti-HA/APC antibody as determined by flow cytometry. (FIG. 4E) IFNγ secretion as determined by ELISA and (FIG. 4F) anti-tumor activity as determined by luminescence-based cytotoxicity assay of CAR T cells expressing LINGO1 CAR variants after 24 h co-culture with A673 cells at an effector-target ratio of 1:1. (FIG. 4G) Expansion of LINGO1 CAR T cells based on Li81 VLVH and T cels expressing a CAR without a binding domain (ΔscFv). (FIG. 4H) IFNγ and IL2 production as determined by ELISA and (FIG. 4I) anti-tumor activity as determined by luminescence-based cytotoxicity assay by LINGO1 CAR T cells after 24 h co-culture with Ewing sarcoma cell lines at different effector-target ratios. Data represent mean±SD from 3 technical replicates. Statistical significance was determined by two-sided Student's t test.
CAR T cells targeting LINGO1 for the treatment of Ewing sarcoma were developed.

Binder	binding result
B1	binds
B2	binds
B3	binds
B4	binds
